# Assay results: publication PMC9352680, “A comprehensive thermodynamic model for RNA binding by the Saccharomyces cerevisiae Pumilio protein PUF4”
# T1: PUF4 RNA-binding domain (Saccharomyces cerevisiae, UniProt P25339 537-888)
# T1 sequence: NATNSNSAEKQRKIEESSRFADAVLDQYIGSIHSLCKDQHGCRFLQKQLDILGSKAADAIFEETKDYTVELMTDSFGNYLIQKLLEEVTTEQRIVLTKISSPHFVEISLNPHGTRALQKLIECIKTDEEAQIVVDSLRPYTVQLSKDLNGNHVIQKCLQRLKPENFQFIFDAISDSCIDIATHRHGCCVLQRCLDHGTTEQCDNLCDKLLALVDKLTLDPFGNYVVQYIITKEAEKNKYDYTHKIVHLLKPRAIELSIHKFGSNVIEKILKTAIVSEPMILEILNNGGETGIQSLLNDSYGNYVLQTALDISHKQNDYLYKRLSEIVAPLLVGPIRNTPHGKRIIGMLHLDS
# Molecular target: T1, PUF4 RNA-binding domain
# Test: Mg; RNA-MaP; 20 mM Na-HEPES pH 7.4, 30 mM KOAc, 0.75 mM MgCl2, 0.1% Tween-20, 5% glycerol, 0.1 mg/mL BSA, 2 mM DTT; 25 C; 0.0125-409.6 nM protein
# Settings: tags: N-His6-TEV cleaved; C-SNAP kept, Cy3B-labelled; label: tethered on chip by stalled RNA polymerase
row,Binder,Kd
1,UCUCUUACACACUAUUAGCUCUCUU (ssRNA) [Id_ii_S1_P4E.4_K4.3_C4.2_[C-2A]_[T-1C]_H4.3_A4.1_F4.1_T4.2_[T11C]],> 2300 nM
2,UCUCUUAUACACUAUUAAAUCUCUU (ssRNA) [Id_ii_S1_P4E.4_K4.3_C4.2_[C-2A]_H4.3_A4.1_F4.1_T4.2_[G10A]_[T11A]],24.2 nM
3,UCUCUUAUACACUAUUACAUCUCUU (ssRNA) [Id_ii_S1_P4E.4_K4.3_C4.2_[C-2A]_H4.3_A4.1_F4.1_T4.2_[G10C]_[T11A]],29.6 nM
4,UCUCUUUCACACUAUUACCUCUCUU (ssRNA) [Id_ii_S1_P4E.4_K4.3_C4.2_[C-2T]_[T-1C]_H4.3_A4.1_F4.1_T4.2_[G10C]_[T11C]],> 2300 nM
5,UCUCUUUGUACCUUAUCUCUU (ssRNA) [Ib_S1_P4E.1_K4.1_C4.1_H4.1_A4.1_[T5C]_[A6C]_F4.1_T4.1],3.61 nM
6,UCUCUUAUACACUAUUAGUUCUCUU (ssRNA) [Id_ii_S1_P4E.4_K4.3_C4.2_[C-2A]_H4.3_A4.1_F4.1_T4.2],42.8 nM
7,UCUCUUCGACACUAUUAUCUCUCUU (ssRNA) [Id_ii_S1_P4E.4_K4.3_C4.2_[T-1G]_H4.3_A4.1_F4.1_T4.2_[G10T]_[T11C]],> 2300 nM
8,UCUCUUUUACACUAUUAGCUCUCUU (ssRNA) [Id_ii_S1_P4E.4_K4.3_C4.2_[C-2T]_H4.3_A4.1_F4.1_T4.2_[T11C]],1600 nM
9,UCUCUUAUACACUAUUAAUUCUCUU (ssRNA) [Id_ii_S1_P4E.4_K4.3_C4.2_[C-2A]_H4.3_A4.1_F4.1_T4.2_[G10A]],35.2 nM
10,UCUCUUUGACACUAUUAGCUCUCUU (ssRNA) [Id_ii_S1_P4E.4_K4.3_C4.2_[C-2T]_[T-1G]_H4.3_A4.1_F4.1_T4.2_[T11C]],> 2300 nM
11,UCUCUUAGACACUAUUAACUCUCUU (ssRNA) [Id_ii_S1_P4E.4_K4.3_C4.2_[C-2A]_[T-1G]_H4.3_A4.1_F4.1_T4.2_[G10A]_[T11C]],> 2300 nM
12,UCUCUUUGUACGUUAUCUCUU (ssRNA) [Ic_S1_P4E.1_K4.1_C4.1_H4.1_A4.1_[T5C]_[A6G]_F4.1_T4.1],4.05 nM
13,UCUCUUACACACUAUUACCUCUCUU (ssRNA) [Id_ii_S1_P4E.4_K4.3_C4.2_[C-2A]_[T-1C]_H4.3_A4.1_F4.1_T4.2_[G10C]_[T11C]],> 2300 nM
14,UCUCUUCGACACUAUUACCUCUCUU (ssRNA) [Id_ii_S1_P4E.4_K4.3_C4.2_[T-1G]_H4.3_A4.1_F4.1_T4.2_[G10C]_[T11C]],> 2300 nM
15,UCUCUUUCACACUAUUACUUCUCUU (ssRNA) [Id_ii_S1_P4E.4_K4.3_C4.2_[C-2T]_[T-1C]_H4.3_A4.1_F4.1_T4.2_[G10C]],> 2300 nM
16,UCUCUUUCACACUAUUAUCUCUCUU (ssRNA) [Id_ii_S1_P4E.4_K4.3_C4.2_[C-2T]_[T-1C]_H4.3_A4.1_F4.1_T4.2_[G10T]_[T11C]],> 2300 nM

row,Binder,Kd
1,UCUCUUUAACACUAUUAGUUCUCUU (ssRNA) [Id_ii_S1_P4E.4_K4.3_C4.2_[C-2T]_[T-1A]_H4.3_A4.1_F4.1_T4.2],> 2300 nM
2,UCUCUUUUACACUAUUAUUUCUCUU (ssRNA) [Id_ii_S1_P4E.4_K4.3_C4.2_[C-2T]_H4.3_A4.1_F4.1_T4.2_[G10T]],1130 nM
3,UCUCUUCCACACUAUUACUUCUCUU (ssRNA) [Id_ii_S1_P4E.4_K4.3_C4.2_[T-1C]_H4.3_A4.1_F4.1_T4.2_[G10C]],> 2300 nM
4,UCUCUUAUACACUAUUAUAUCUCUU (ssRNA) [Id_ii_S1_P4E.4_K4.3_C4.2_[C-2A]_H4.3_A4.1_F4.1_T4.2_[G10T]_[T11A]],31.1 nM
5,UCUCUUAUACACUAUUACGUCUCUU (ssRNA) [Id_ii_S1_P4E.4_K4.3_C4.2_[C-2A]_H4.3_A4.1_F4.1_T4.2_[G10C]_[T11G]],32.1 nM
6,UCUCUUAUACACUAUUAUUUCUCUU (ssRNA) [Id_ii_S1_P4E.4_K4.3_C4.2_[C-2A]_H4.3_A4.1_F4.1_T4.2_[G10T]],35.2 nM
7,UCUCUUUAACACUAUUAGCUCUCUU (ssRNA) [Id_ii_S1_P4E.4_K4.3_C4.2_[C-2T]_[T-1A]_H4.3_A4.1_F4.1_T4.2_[T11C]],> 2300 nM
8,UCUCUUUUACACUAUUACCUCUCUU (ssRNA) [Id_ii_S1_P4E.4_K4.3_C4.2_[C-2T]_H4.3_A4.1_F4.1_T4.2_[G10C]_[T11C]],1320 nM
9,UCUCUUUUACACUAUUACUUCUCUU (ssRNA) [Id_ii_S1_P4E.4_K4.3_C4.2_[C-2T]_H4.3_A4.1_F4.1_T4.2_[G10C]],1160 nM
10,UCUCUUAAACACUAUUAGCUCUCUU (ssRNA) [Id_ii_S1_P4E.4_K4.3_C4.2_[C-2A]_[T-1A]_H4.3_A4.1_F4.1_T4.2_[T11C]],> 2300 nM
11,UCUCUUAAACACUAUUAUCUCUCUU (ssRNA) [Id_ii_S1_P4E.4_K4.3_C4.2_[C-2A]_[T-1A]_H4.3_A4.1_F4.1_T4.2_[G10T]_[T11C]],> 2300 nM
12,UCUCUUAGACACUAUUACAUCUCUU (ssRNA) [Id_ii_S1_P4E.4_K4.3_C4.2_[C-2A]_[T-1G]_H4.3_A4.1_F4.1_T4.2_[G10C]_[T11A]],> 2300 nM
13,UCUCUUUUACACUAUUAUAUCUCUU (ssRNA) [Id_ii_S1_P4E.4_K4.3_C4.2_[C-2T]_H4.3_A4.1_F4.1_T4.2_[G10T]_[T11A]],944 nM
14,UCUCUUUUACACUAUUAAUUCUCUU (ssRNA) [Id_ii_S1_P4E.4_K4.3_C4.2_[C-2T]_H4.3_A4.1_F4.1_T4.2_[G10A]],1120 nM
15,UCUCUUAUACACUAUUAGCUCUCUU (ssRNA) [Id_ii_S1_P4E.4_K4.3_C4.2_[C-2A]_H4.3_A4.1_F4.1_T4.2_[T11C]],49.5 nM
